Results taken from patent US20220017630A1 (JIANGSU SIMCERE PHARMACEUTICAL, published 2022).
Residue numbers refer to the chain shown, from its start.

T1: cynomolgus TNFR2 (Sino 90102-C08H) (cynomolgus, UniProt A0A2K5VET2 132-366)
T1 construct: also called CynoTNFR2 (His tag)
T1 sequence: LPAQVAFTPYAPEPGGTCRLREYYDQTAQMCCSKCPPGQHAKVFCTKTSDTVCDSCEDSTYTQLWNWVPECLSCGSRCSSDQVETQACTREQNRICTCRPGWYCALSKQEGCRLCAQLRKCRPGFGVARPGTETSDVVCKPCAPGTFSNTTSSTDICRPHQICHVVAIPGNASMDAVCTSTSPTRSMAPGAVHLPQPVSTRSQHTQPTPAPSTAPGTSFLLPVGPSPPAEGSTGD

T2: Human TNFR2 recombinant protein (Sino 10417-H08H) (human, UniProt P20333 23-257)
T2 construct: also called hTNFR2 (His tag)
T2 sequence (looked up): T1 sequence with G16S, P36S, Q117P, H164N, A210E, G216S, V223M

T3: human TNFR2 (Novoprotein, Catalog No. C830) (human, UniProt P20333 23-257, limits assumed)
T3 construct: construct not described; also called TNFR2 protein
T3 sequence (looked up): T1 sequence with G16S, P36S, Q117P, H164N, A210E, G216S, V223M

T4: human TNFR2 on the cell surface (CHO-TNFR2 cells; human Treg cells) (human, UniProt P20333 23-461)
T4 construct: whole, on cells; The assay field of each row says which cells; also called TNFR2-CHO cell; TNFR2 on Treg cells
T4 sequence (looked up): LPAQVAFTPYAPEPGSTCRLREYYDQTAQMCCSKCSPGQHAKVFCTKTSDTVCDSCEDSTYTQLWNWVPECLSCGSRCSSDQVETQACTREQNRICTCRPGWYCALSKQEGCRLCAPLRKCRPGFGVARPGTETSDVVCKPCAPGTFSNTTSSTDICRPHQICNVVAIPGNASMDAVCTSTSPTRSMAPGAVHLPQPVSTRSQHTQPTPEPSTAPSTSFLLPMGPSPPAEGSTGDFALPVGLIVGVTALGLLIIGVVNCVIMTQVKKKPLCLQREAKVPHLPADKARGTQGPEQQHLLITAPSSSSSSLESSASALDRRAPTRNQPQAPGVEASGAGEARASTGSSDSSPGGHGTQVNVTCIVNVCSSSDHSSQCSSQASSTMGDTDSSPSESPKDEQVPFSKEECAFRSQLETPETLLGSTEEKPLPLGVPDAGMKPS

T5: mouse TNFR2 (mouse, UniProt P25119 23-258, limits assumed)
T5 sequence (looked up): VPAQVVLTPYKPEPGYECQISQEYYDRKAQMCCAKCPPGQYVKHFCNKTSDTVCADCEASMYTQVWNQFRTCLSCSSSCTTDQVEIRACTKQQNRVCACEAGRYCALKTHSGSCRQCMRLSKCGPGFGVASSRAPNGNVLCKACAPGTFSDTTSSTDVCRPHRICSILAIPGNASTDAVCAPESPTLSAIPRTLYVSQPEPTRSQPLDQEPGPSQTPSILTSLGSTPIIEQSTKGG

T6: human CREG-His protein (human, UniProt O75629 32-220, limits assumed)
T6 construct: Control antigen in ELISA; also called control human CREG-His
T6 sequence (looked up): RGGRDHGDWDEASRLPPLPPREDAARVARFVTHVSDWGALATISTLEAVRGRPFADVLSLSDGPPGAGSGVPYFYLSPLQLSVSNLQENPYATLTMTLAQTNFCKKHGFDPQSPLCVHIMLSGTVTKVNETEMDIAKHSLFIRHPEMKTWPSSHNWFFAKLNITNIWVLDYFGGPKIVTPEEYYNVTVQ

B1: TNFR2 antibody #224 (antibody, V domains shown)
VH: EVQLQESGPEIVKPGASVKLSCTASGFNNKDIYMHWVKQRPEQGLEWIGRIDPATGNTKHDPKFQDKATLSSDTSSNTAYLQFSSLTSEDTAVYYCAHSPYGDFGAMDYWGQGTTVTVSS
VL: DIQMTQSPAIMSASLGERVTMTCTASSSVSSNYLHWYQQKPGSSPKLWIYSTSNLPSGVPARFSGSGSGTSYSLTISSMEAEDAATYYCHQYHRSPWTFGGGTKLEIK
B2: TNFR2 antibody #219 (antibody, V domains shown)
VH: EVQLQESGAELVRPGASVKLSCKASGYSFTNYWMNWVKQRPGQGLEWIGMIHPSDTETRLNQNFKDKATLTVDKSSSTSYMQLSSPTSEDSAVYYCARGEGLGAARSVSMDYWGQGTTVTVSS
VL: DILMTQSPSSLSASLGDRVTISCRASQDISNYLNWYQQKPDGTVKVLIYYTAILHSGVPSRFSGSGSGTDYSLTISNLEQEDIATYFCQQGNTLPWTFGGGTKLEIK
B3: TNFR2 antibody #226 (antibody, V domains shown)
VH: B2 VH with T56S, N63K, S79A
VL: B2 VL with L3Q, I53L
B4: TNFR2 antibody #133 (antibody, V domains shown)
VH: EVQLQESGAELVRSGASVKLSCTASGFNIKDYYIQWVKQRPEQGLEWIGWIDPESGNTKYAPKFQDKATMTADTSSNTAYLQLSGLTSEDSAVYYCNAYYDYDGSMDYWGQGTTVTVSS
VL: DIVMTQSPLSLPVSLGDQASISCRSSQSLVHSNGNTYLHWYLQKPGQSPKLLIYKVSNRFSGVPDRFSGSGSGTDFTLKISRVETDDLGVYFCSQSTHVPTWTFGGGTKLEIK
B5: TNFR2 antibody #125 (antibody, V domains shown)
VH: EVQLQESGGGLVQPGGSLNLSCAASGFAFSIYDLSWVRQTPEKRLEWVAYINNGGISTYYSDTVKGRFTISRDNAKNTLYLQMSSLKSEDTAMYYCVRGPFYGSANYFDYWGQGTTVTVSS
VL: DIQMTQSPASLSLSVGETVTITCRASENIYSNLAWYQQKQGKSPQLLVYDATKLAEGVPSRFSGSESGTQYSLKINSLQSEDFGTYYCQHFWVTPWTFGGGTKLEIK
B6: TNFR2 antibody #001 (antibody, V domains shown)
VH: B5 VH with I31T
VL: B5 VL with D1E, Q3V, A25T, N28S, A34P
notes: also called antibody #1
B7: TNFR2 antibody #309 (antibody, V domains shown)
VH: EVQLQESGAELVKPGASVKLSCKASGYTFTSYWIHWVKLRPGQGFEWIGEINPNNGGTDYNEKFKRKATLTVDKSSSTAYMELSSLTSEDSAIYYCTIDSMITTTWFAYWGQGTTVTVSS
VL: EIVMTQSQKLMSTVVGDRVSVTCKASQNVGTNVAWFQQKPGQSPKALINSASYRYSGVPDRFTGSGSGTDFTLTISSVQSEDLAEYFCQQYNSYPFTFGSGTKLEIK
B8: TNFR2 antibody #088 (antibody, V domains shown)
VH: B5 VH with I31T, E42G, S71T
VL: B5 VL with Q3L, S14F

The binders below were run against T1, cynomolgus TNFR2 (Sino 90102-C08H) (assay: ELISA, coated antigen 0.5 ug/ml, antibody 28 ng/ml).
Description: (§1) An microplate was pre-coated with 100 μl/well of 0.5 μg/ml human TNFR2 or cynomolgus TNFR2 (the same antigen protein as in Example 4). […] A mouse anti-human IgG Fc-HRP working solution (1:10000 dilution) was added to the plate at 100 μl/well after plate washing, and incubated with shaking at room temperature for 1.0 h. The plate was washed again, a HRP substrate TMB was added for color development prior to the termination of the reaction by adding termination solution. An microplate reader was used to read the absorption value.

ELISA OD [OD]	Binder
2.66	B1
3.41	B2
3.28	B3
3.18	B4
3.25	B5
2.64	B6

The binders below were run against T2, Human TNFR2 recombinant protein (Sino …) (assay: ELISA, coated antigen 0.5 ug/ml, antibody 28 ng/ml).
Description: as §1

ELISA OD [OD]	Binder
2.23	B1
3.37	B2
3.34	B3
3.12	B4
3.32	B5
2.81	B6

What follows are binders tested against T3, human TNFR2 (Novoprotein, Catalog No. …) (assay: blocking ELISA, TNFα-biotin on coated human TNFR2, antibody 20 nM).
Description: (§2) A microplate was pre-coated with 100 μl/well of 1 μg/ml human TNFR2 (Novoprotein, Catalog No. C830). […] After washing the plate, a Streptavidin-HRP working solution (1:10000 dilution) was added at 100 μl/well, and incubated with shaking at room temperature for 40 min. The plate was washed again, the HRP substrate TMB was added for color development, the termination solution was added to terminate the reaction, and the microplate reader was used to read the absorption value.

ELISA OD of antibodies to be tested (20 nM) [OD]	Binder
0.123	B1
0.28	B2
0.237	B3
0.34	B7
0.454	B4
0.161	B5
0.35	B8
0.198	B6

Each binder was assayed against T4, human TNFR2 on the cell surface … (assay: flow cytometry, blocking of TNFα-biotin on CHO-TNFR2 cells; AUC for 002# / AUC for antibody x 100).
Description: CHO cells that stably overexpressed human TNFR2 were used for experiments. The cells were resuscitated and passaged until in good state, and the expression level of human TNFR2 on the cells was assessed by FACS. Compared to the isotype control, the assay could be carried out when the fold change of mean fluorescence intensity (MFI) was more than 100 times.
CHO-TNFR2 cells were digested, washed twice with DPBS and stained with Live/Dead (L/D) at room temperature for 20 min, and then seeded at 1×10⁵ cells/50 μl/well. […] The diluted antibodies were added 50 μl/well into wells pre-seeded with cells, and gently blown and mixed to make the final concentrations of the antibodies to 20, 6.67, 2.22, 0.74, 0.247, 0.08, 0.027 and 0 nM, respectively followed by incubation at 4° C. for 30 min. […] After washing twice with the staining buffer, 100 μl/well of PE-streptavidin was added and incubated at 4° C. for 30 min. After additional washing with the staining buffer twice, 150 μl resuspended cells was analyzed using an flow cytometry. Taking the logarithmic value of the antibody concentrations as abscissa and the corresponding MFI value as ordinate, the inhibition curve of the antibody was drawn, and the IC50 value was calculated by four parameters fitting.

AUC % [%]	Binder
100	B1
93.7	B2
98.7	B3
92.4	B7
99.9	B4
121	B5
75.4	B8
88.3	B6

What follows are binders tested against T3, human TNFR2 (Novoprotein, Catalog No. …) (assay: blocking ELISA, TNFα-biotin on coated human TNFR2, antibody 2 nM).
Description: as §2

ELISA OD of antibodies to be tested (2 nM) [OD]	Binder
1.44	B1
0.756	B2
0.709	B3
2.14	B7
2.11	B4
0.599	B5
2.34	B8
0.805	B6

The binders below were run against T4, human TNFR2 on the cell surface … (assay: flow cytometry, blocking of TNFα-biotin on CHO-TNFR2 cells).

Antibody AUC	Binder
40000	B1
14900	B2
18600	B3
27800	B7
17300	B4
37000	B5
24300	B8
34300	B6

These binders were tested against T5, mouse TNFR2 (assay: ELISA).

binding result	Binder
no binding (tested: 28 ng/ml)	B1
no binding (tested: 28 ng/ml)	B2
no binding (tested: 28 ng/ml)	B3
no binding (tested: 12 ng/mL)	B7
no binding (tested: 28 ng/ml)	B4
no binding (tested: 28 ng/ml)	B5
no binding (tested: 12 ng/mL)	B8
no binding (tested: 28 ng/ml)	B6

Each binder was assayed against T6, human CREG-His protein (assay: ELISA).

binding result	Binder
no binding (tested: 28 ng/ml)	B1
no binding (tested: 28 ng/ml)	B2
no binding (tested: 28 ng/ml)	B3
no binding (tested: 12 ng/mL)	B7
no binding (tested: 28 ng/ml)	B4
no binding (tested: 28 ng/ml)	B5
no binding (tested: 12 ng/mL)	B8
no binding (tested: 28 ng/ml)	B6
